Data from PMC11234463, “Structural Evolution of Bacterial Polyphosphate Degradation Enzyme for Phosphorus Cycling” (Advanced Science, 2024).

How the values were obtained:
[1] = target: T1, DrPPX (Deinococcus radiodurans, UniProt Q9RYW9); assay: X-ray crystal structure of complex; settings: crystals grown in 1.26 M NaH2PO4 and 0.14 M K2HPO4, pH 5.6; four phosphate ions in the polyP-binding area
T1 construct: gene DR_A0185; full length, N-terminal His6 tag (pET-28a), expressed in E. coli BL21 Rosetta pLysS (DE3); asymmetric homodimer; about 515 residues (C-terminal deletion printed as 320-515)

[2] = target: AbPPX, exopolyphosphatase (PPX) from Acinetobacter baumannii (Acinetobacter baumannii 15827); assay: crystal structure; sitting drop vapor diffusion at 20 °C, protein 1-5 mg/mL; molecular replacement with E. coli PPX (PDB 1U6Z); dimers seen in the crystals
[3] = target: DrPPX, exopolyphosphatase (PPX) from Deinococcus radiodurans, wild type (Deinococcus radiodurans R1); assay: as above
[4] = target: DrPPX, exopolyphosphatase (PPX) from Deinococcus radiodurans, wild type (Deinococcus radiodurans R1); assay: SEC; gel filtration chromatography; elution peak of DrPPX (+7AA) compared with that of wild-type DrPPX
[5] = target: KpPPX, exopolyphosphatase (PPX) from Klebsiella pneumoniae (Klebsiella pneumoniae 1158); assay: crystal structure; sitting drop vapor diffusion at 20 °C, protein 1-5 mg/mL; molecular replacement with E. coli PPX (PDB 1U6Z); dimers seen in the crystals

T1 sequence (Q9RYW9 entry or part of it): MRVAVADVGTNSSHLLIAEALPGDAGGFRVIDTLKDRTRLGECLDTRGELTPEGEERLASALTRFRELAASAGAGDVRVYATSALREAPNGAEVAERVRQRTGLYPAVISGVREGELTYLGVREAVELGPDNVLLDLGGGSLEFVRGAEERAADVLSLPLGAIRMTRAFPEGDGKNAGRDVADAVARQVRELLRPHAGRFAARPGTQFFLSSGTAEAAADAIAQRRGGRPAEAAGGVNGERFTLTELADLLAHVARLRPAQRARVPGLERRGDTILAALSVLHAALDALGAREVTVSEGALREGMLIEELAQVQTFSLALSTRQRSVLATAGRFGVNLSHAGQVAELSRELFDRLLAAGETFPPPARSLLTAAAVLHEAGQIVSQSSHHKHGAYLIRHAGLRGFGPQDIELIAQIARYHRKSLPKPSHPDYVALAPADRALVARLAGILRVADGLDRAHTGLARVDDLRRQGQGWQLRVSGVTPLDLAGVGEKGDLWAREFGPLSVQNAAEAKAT

O=P(O)(O)O [Pi, phosphate]
X-ray crystal structure of complex [1]: four phosphate ions were located in the polyP‐binding area

AbPPX, exopolyphosphatase (PPX) from Acinetobacter baumannii (enzyme)
stoichiometry N [2]: 2

DrPPX, exopolyphosphatase (PPX) from Deinococcus radiodurans, wild type (enzyme)
stoichiometry N [3]: 2
stoichiometry N [4]: 2

KpPPX, exopolyphosphatase (PPX) from Klebsiella pneumoniae (enzyme)
stoichiometry N [5]: 2
